T1: SA2 (STAG2), full length (human, UniProt Q8N3U4 1-1231)
T1 sequence: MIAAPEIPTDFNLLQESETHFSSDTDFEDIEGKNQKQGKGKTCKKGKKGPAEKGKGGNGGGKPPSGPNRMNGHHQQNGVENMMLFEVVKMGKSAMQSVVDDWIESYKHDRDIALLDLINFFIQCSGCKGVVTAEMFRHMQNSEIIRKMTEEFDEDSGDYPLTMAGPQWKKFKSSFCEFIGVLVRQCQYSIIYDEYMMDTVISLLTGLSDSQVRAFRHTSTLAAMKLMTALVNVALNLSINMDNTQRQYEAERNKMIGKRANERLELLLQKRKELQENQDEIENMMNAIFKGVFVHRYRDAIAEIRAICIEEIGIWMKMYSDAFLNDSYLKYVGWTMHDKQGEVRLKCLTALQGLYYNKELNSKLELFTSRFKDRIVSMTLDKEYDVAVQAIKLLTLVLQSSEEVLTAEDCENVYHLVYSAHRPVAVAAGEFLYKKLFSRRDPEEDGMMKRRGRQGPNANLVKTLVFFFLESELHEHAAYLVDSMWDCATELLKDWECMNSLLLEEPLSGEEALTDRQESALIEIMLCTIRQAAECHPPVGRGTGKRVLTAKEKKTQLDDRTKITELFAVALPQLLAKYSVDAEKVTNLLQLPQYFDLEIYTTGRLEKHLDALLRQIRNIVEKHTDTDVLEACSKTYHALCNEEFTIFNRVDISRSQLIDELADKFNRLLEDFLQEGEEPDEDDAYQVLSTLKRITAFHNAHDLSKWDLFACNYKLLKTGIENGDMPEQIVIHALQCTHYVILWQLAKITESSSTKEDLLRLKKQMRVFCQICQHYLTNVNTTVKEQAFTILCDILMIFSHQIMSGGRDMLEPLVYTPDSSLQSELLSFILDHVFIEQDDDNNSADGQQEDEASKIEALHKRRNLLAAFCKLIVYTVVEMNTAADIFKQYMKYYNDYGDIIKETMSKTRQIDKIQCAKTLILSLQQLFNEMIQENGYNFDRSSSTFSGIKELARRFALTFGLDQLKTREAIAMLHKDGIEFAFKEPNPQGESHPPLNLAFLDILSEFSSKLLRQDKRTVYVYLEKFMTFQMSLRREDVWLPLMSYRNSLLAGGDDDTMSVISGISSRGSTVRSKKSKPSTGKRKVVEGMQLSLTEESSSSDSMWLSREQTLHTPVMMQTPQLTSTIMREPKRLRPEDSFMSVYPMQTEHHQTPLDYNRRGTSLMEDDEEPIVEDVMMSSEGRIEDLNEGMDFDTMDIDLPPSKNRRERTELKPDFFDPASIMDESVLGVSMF

T2: SA1 (STAG1), full length (UniProt Q8WVM7 1-1258)
T2 sequence: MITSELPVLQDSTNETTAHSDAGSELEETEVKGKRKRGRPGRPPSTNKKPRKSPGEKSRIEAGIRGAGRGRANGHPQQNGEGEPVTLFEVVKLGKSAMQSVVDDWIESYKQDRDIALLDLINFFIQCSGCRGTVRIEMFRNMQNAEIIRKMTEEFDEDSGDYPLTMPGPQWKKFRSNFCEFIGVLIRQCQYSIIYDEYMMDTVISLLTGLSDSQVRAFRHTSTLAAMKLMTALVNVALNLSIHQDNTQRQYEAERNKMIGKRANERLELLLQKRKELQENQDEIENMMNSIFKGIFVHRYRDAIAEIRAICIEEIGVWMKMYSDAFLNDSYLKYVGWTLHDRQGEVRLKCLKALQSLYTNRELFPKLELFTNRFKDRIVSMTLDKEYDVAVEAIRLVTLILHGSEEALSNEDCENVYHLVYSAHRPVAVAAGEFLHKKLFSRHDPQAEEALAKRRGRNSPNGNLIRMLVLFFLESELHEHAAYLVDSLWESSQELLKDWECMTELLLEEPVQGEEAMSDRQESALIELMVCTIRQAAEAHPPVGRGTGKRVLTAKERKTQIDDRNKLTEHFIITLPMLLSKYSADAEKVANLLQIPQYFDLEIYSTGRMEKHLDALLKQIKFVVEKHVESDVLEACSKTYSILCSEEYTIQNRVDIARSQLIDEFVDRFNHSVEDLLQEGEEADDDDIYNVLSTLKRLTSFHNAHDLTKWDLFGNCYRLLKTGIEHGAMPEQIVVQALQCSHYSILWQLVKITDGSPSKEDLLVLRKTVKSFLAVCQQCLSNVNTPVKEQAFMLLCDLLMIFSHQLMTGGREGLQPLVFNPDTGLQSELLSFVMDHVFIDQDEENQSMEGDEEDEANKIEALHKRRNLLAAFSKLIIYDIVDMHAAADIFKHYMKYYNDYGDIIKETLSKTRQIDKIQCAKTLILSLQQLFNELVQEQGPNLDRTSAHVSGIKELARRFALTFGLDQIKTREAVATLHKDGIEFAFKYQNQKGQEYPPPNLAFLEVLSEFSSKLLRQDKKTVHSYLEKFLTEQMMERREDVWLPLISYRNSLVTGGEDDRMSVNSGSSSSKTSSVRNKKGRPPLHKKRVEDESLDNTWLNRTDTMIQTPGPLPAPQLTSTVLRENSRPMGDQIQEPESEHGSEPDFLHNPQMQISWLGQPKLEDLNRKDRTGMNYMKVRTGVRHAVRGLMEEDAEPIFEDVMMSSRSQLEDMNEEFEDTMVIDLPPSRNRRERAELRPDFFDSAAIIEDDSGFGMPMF

T3: SA2 1-1051 (human, UniProt Q8N3U4 1-1051)
T3 sequence: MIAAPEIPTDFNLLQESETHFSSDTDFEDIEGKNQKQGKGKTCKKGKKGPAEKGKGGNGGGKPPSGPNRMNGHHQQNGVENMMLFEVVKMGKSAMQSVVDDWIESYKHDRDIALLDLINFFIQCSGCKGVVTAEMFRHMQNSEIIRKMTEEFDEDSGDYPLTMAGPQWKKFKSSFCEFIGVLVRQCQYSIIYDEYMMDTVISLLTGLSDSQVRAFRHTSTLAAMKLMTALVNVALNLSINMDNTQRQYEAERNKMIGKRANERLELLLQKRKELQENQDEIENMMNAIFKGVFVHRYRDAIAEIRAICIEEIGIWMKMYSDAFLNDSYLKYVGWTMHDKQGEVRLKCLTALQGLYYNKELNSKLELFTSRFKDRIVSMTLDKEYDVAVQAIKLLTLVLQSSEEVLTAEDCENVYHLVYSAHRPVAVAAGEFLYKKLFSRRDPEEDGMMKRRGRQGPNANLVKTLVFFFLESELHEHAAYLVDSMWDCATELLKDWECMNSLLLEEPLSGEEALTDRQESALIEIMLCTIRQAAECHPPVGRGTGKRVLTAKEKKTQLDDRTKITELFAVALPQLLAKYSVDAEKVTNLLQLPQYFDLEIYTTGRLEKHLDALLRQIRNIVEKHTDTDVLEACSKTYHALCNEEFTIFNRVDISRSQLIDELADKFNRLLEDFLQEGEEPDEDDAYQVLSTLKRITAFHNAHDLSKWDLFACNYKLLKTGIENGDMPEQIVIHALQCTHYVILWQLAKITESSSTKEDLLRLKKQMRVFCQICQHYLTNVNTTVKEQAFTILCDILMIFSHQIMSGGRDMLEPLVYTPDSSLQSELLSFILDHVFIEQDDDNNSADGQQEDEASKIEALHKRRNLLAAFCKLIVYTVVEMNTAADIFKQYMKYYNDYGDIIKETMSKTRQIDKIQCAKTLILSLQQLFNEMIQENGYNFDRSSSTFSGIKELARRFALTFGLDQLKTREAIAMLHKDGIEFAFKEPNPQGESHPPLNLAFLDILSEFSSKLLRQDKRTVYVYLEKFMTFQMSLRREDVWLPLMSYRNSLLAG

B1: ds25 (Alexa ss25 + ss-25-com) (dsDNA)
DNA 1: TGTCGCATAGTGTAGTCGGTCTTGT
DNA 2: ACAAGACCGACTACACTATGCGACA
B2: ss66 (Alexa ss66) (ssDNA)
DNA: CTGGATCCGTACAGTGTAAGGGTGAGTGGTTGGGTGTGTGGGTGTTGATGTAGAACAAGAATTCGA

Assays:
[1] = target: T1, SA2 (STAG2), full length; assay: fluorescence anisotropy; no detectable binding (ND); Anisotropy: 20 mM Hepes pH 7.5, 0.1 mM MgCl2, 0.5 mM DTT, 100 mM KCl, 1 nM DNA; AFM: 20 mM Hepes pH 7.5, 100 mM KCl, 0.1 mM MgCl2, room temperature, 20 min; settings: protein: recombinant; tags: 6xHis; label: 5' Alexa 488 on strand 1; blunt
[2] = target: T2, SA1 (STAG1), full length; assay: fluorescence anisotropy; Anisotropy: 20 mM Hepes pH 7.5, 0.1 mM MgCl2, 0.5 mM DTT, 100 mM KCl, 1 nM DNA; AFM: 20 mM Hepes pH 7.5, 100 mM KCl, 0.1 mM MgCl2, room temperature, 20 min; settings: protein: recombinant; label: Alexa 488
[3] = target: T3, SA2 1-1051; assay: as above; settings: protein: recombinant; tags: 6xHis; label: Alexa 488
[4] = target: T1, SA2 (STAG2), full length; assay: as above; settings: protein: recombinant; tags: 6xHis; label: Alexa 488

| Binder | binding result [1] | Kd [2] | Kd [3] | Kd [4] |
| --- | --- | --- | --- | --- |
| B1 | no binding |  |  |  |
| B2 |  | 36.5 ± 0.2 nM | 28 nM | 41 ± 5.3 nM |

Reference: publication PMC5777247, “Cohesin SA2 is a sequence-independent DNA-binding protein that recognizes DNA replication and repair intermediates”
